Assay: yeast display, Sf9 membrane polyspecificity reagent, FACS + sequencing; frameworks hold sequencing errors
Outline: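 Polyreactivity labels are assigned by the sorting gate from which each nanobody was recovered. The gates were low and high (top ~1%), set on anti-HA fluorescence for expression and streptavidin fluorescence for reagent binding. Before sorting, galactose-induced (36–48 hours) yeast display cells were stained for 1 hour at 4 °C with 10% biotinylated, detergent-solubilized Sf9 membrane reagent.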

Row | Sequence | polyreactivity (PSR sort gate)
1 | QVQLVESGGGLVQAGGSLRLSCAASGYAMGWYRQAPGKERELVAAISWSGDITYADSVKGRFTISRDNAKNTVYLQMNRLKPEDTAVYYCNADRYTGRDGEQSLDYWGQGTQVTVSS | low polyreactivity
2 | QVQLVESGGGLVQAGGSLRLSCAASGYIFALNAMGWYRQAPGKERELVASITGAGSTNYADSVKGRFTISRDNAKNTVYLQMNSLKPEDTAVYYCAKRTRRRGYYYWGQGTQVTVSS | high polyreactivity
3 | QVQLVESGGGLVQAGGSLRLSCAASGYIFARYAMGWYRQAPGKERELVASISRRGTSTYYADSVKGRFTISRDNAKNTDYLQMNSLKPEDTAVYYCNKEYYIYRTGTIGERSDMGYWGQGTQVTVSS | high polyreactivity
4 | QVQLVESGGGLVQAGGSLRLSCAASGYIFAYYAMGWYRQAPGKERELVATIRSGGSTNYADSVKGRFTISRDNAKNTGYLQMNILKPEDTAVYYCARDDATACDYWGQGSQVTVSS | low polyreactivity
5 | QVQLVESGGGLVQAGGSLRLSCAASGYIFDGNAMGLYRQAPGKERELVASISSGTSTYYADSVKGRFTISRDNAKNTVYLQMNSLKPEATAVYYCNAGVEFAASLYYSDNYDYWGQGTQVTVSS | low polyreactivity
6 | QVQLVESGGGLVQAGGSLRLSCAASGYIFDRYAMGWYRQAPGKERELVAAISGRGGSTYYADSVKGRFTISRDNAKNTVYLQMNSLKPEDTAVYYCARDVYVRIGQRARYDSWGQGTQVTVSS | high polyreactivity
7 | QVQLVESGGGLVQAGGSLRLSCAASGYIFDRYAMGWYRQAPGKERELVAAITNGGRTYYADSVKGRFTISRDNAKNTVYLQMNSLKPEDTAVYYCAAVVYSRGYYWGQGTQVTVSS | high polyreactivity
8 | QVQLVESGGGLVQAGGSLRLSCAASGYIFDSNVMGWYRQAPGKERELVARIRWSGGSTYYADSVKGRFTISRDNAKNTVYLQMNSLKPEDTAVYYCNVVSYYIAGGWYEGDYWGQGTQVTVSS | low polyreactivity
9 | QVQLVESGGGLVQAGGSLRLSCAASGYIFDVNTMGWYRQAPGKERELVAVIRRGGSTTYADSVKGRFTISRDNAKNTVYLQMNSLKPEDTAVYYCNARVTLGRPLFTYLVRYEYWGQGTQVTVSS | high polyreactivity
10 | QVQLVESGGGLVQAGGSLRLSCAASGYIFDYYAMGWYRQAPGKESELVAAISSSGGTTYYADSVKGRFTISRDNAKNTFYLQMNSLKPEDTAVYYCAARKSRWHRGYYYWGQGTQVTVSS | high polyreactivity
11 | QVQLVESGGGLVQAGGSLRLSCAASGYIFEYYAMGWYRQAPGKDRELVAAISWSGGSTYYADSVKGRFTISRDNAKNTVYLQMNSLKPEDTAVYYCAAESYLPYWDSYYRYDYWGQGTQVTVSS | low polyreactivity
12 | QVQLVESGGGLVQAGGSLRLSCAASGYIFFFNAMAWYRQAPGKERELVAAITRRGVSTYYADSVKGRFTISRDNAKNTVYLQMNSLKPEDTAVYYCATEHNHLGYYYWGQGTQVTVSS | low polyreactivity
13 | QVQLVESGGGLVQAGGSLRLSCAASGYIFGGYAMGWNRQAHGKERELVAGISIGVGSTYYADSVKGRFTISRDKAKNTVNLQMNSLKPEDTAVYYCNRDSVGYDYWGQGTQVTVSS | low polyreactivity
14 | QVQLVESGGGLVQAGGSLRLSCAASGYIFGQNHMGWYRQAPGKERELVAAISSDGSTYYADSVKGRFTISRDNAKNTVYLQMNSLKQEDTAVYYCKYYHQRFPYRQVYYWGQGTQVTVSS | low polyreactivity
15 | QVQLVESGGGLVQAGGSLRLSCAASGYIFGQYAMGWYRQAPGKERELVADITRGGDTYYADSVKGRFTISRDNAKNTVYLQMNSLKPEDTAVYYCAADSFYWAWQYDYWGQGTQVTVSS | high polyreactivity
16 | QVQLVESGGGLVQAGGSLRLSCAASGYIFGSYAMGWYRQAPGKERELVASITRVDSTNYADSVKGRFTISRDNAKNTVYLQMNSLKAEDTAVYYCAADITTPAYATYDYWGQGTQVTVSS | low polyreactivity
17 | QVQLVESGGGLVQAGGSLRLSCAASGYIFGSYTMGWYRQAPAKERELVAGISRRGGGTYYADSVKGRFTISRDNAKNTVYLQMNSLKPEDTAVYYCAAEVITIGLYRYGYWGQGTQVTVSS | high polyreactivity
18 | QVQLVESGGGLVQAGGSLRLSCAASGYIFGVYAMGWYRQAPGKERELVAAISYGVGSTYYADSVKVRFTISRDNAKNTVYFQMNSLKPEDTAVYYCAADVFFYVYEAYLLYYWGQGSQVTVSS | low polyreactivity
19 | QVQLVESGGGLVQAGGSLRLSCAASGYIFGWYAMGWYRQAPGKERELVATIDWSGDSTYYADSVKGRFTISRDNAKNTVYLQMNSLKPEDTAVYYCAVGYSYYPSDEFDYWGQGTQVTVSS | low polyreactivity
20 | QVQLVESGGGLVQAGGSLRLSCAASGYIFIGYAMGWYRQAPGKERELVTYADSVKGRFTISRDNAKNTVYFQMNSRKPEDTAVYYCNKVPRRFSGLDENYWGQGTQVTVSS | low polyreactivity
21 | QVQLVESGGGLVQAGGSLRLSCAASGYIFKYNAMGWYIQAPGKERELVAAISGRGGSTYYADSVKGRFTISRDNAKNTVYLQMNSLKPEDTAVYYCNADYQARRYNYWGQGTQVTVSS | high polyreactivity
22 | QVQLVESGGGLVQAGGSLRLSCAASGYIFKYYAMGWYRQAPGKERELVAAISRSGGSTYYADSVKGRFTISRDNAKNTVYLQMNSLNPEDTAVYYCAADSYYYQGYRRYNYDYWGQGTQVTVSS | high polyreactivity

Row | Sequence | polyreactivity (PSR sort gate)
23 | QVQLVESGGGLVQAGGSLRLSCAASGYIFLGNAMGWYRQAPGKERELVAAISRSGGSTYYADSVKGRFTISRDNAQNTVYLQMNSLKPEDTAVYYCNRDRQKIGYTYKYDYWGQGTQVTVSS | high polyreactivity
24 | QVQLVESGGGLVQAGGSLRLSCAASGYIFNLNAMGWYRQAPGKERELVAAITRSGGSTYYADSVKGRFTISRDNAKNTVYLQMNSQKPEDTAVYYCAARGPYYRPWYKYDYWGQGTQVTVSS | high polyreactivity
25 | QVQLVESGGGLVQAGGSLRLSCAASGYIFPGNAMGWYRQAPGKERELVATISGSAGSTSYADSVKGRFTISRDNAKNTVYLQMNSLKPEDTAVYYCNKAYSYSWGDLDYWGQGTQVTVSS | high polyreactivity
26 | QVQLVESGGGLVQAGGSLRLSCAASGYIFPGNAMGWYRQAPGKERELVATITDDTSTNYADSVKGRFTISRDNAKNTVYLQMNSLKPEDTAVYYCAADLYYWYPYLYDYWGQGTQVTVSS | low polyreactivity
27 | QVQLVESGGGLVQAGGSLRLSCAASGYIFPSYAMGWYRQAPGKERELVAAISESGGSTNYSDSVKGRFTISRDYAKNTVYLQLNSLKPEDTAVYYCAAGYYTVPPDMNSWGQGTQVTVSS | low polyreactivity
28 | QVQLVESGGGLVQAGGSLRLSCAASGYIFPTNAMGWYRPATRKERELLAVITSGGSTYYADSVKGRFTISRDNAKNTVYLLMNSLKPDDTAVYYCAARYQGRYGIYRVLYGYWGQGTQVTVSS | high polyreactivity
29 | QVQLVESGGGLVQAGGSLRLSCAASGYIFQWYDMGWYRQAPGKERELVAAISVTTGSTYYADSVKGRFTISRDNAKNTVYLQMNSLKPEDTAVYYCAAVSWYRHDMYYWGQGTQVTVSS | low polyreactivity
30 | QVQLVESGGGLVQAGGSLRLSCAASGYIFQYYPMGWYRQAPGKERELVAAITSGTRTYYADSVKGRFTISRDNAKNTVYLQMNSLKPDDTAGYYCAASPDYSRYWVYAPTRRLGYWGQGTQVTVSS | high polyreactivity
31 | QVQLVESGGGLVQAGGSLRLSCAASGYIFRSNAMGWYRQAPGKERELVAAISGGGRTNYADSVKGRFTISRDNAKNTVYLQMNSLKPEDTAVYYCAAGGYYQRTRGYWGQATQVTVSS | high polyreactivity
32 | QVQLVESGGGLVQAGGSLRLSCAASGYIFSKYALGWYRQAPGKERELVASITGRGSRTYYADSVKGRFTISRDNAKNTVYLQMNSLKAEDTAVYYCAADWYGQKTSNRWYFRPGYVYWGQGTQVTVSS | high polyreactivity
33 | QVQLVESGGGLVQAGGSLRLSCAASGYIFSLYAMGWYRQAPGKERELLADITTSAGSTYYADSVKGRFTISRDNAKNTVYLQMISLKPEDTAVYYCAAAVYGHSYYDYDYWGLGTQVTVSS | low polyreactivity
34 | QVQLVESGGGLVQAGGSLRLSCAASGYIFSLYGMGWYRQAPGKERELVAAITGSGGGTYADSVKGRFTISRDNAQNTVYLQMKSLKPEDTAVYYCAAGGYRRRFWPIYDYWGQGTQVTVSS | low polyreactivity
35 | QVQLVESGGGLVQAGGSLRLSCAASGYIFSRNDRGWYRQAPGKERELVARITGSAGSTYYADSVKGRFTISRDNAKNTVYLQMNSLKPEDTAVYYCARRWYTWRKNKYCRMDYWGQGTQVTVSS | low polyreactivity
36 | QVQLVESGGGLVQAGGSLRLSCAASGYIFSSYAMGWYRQAPGKERELVAAISWTGGTYYADSVKGRFTISRDNAKNTVYLQMNSLNPEDTAVYYCAVRYKRKGSGYRTNAYDYWGQGTQVTVSS | high polyreactivity
37 | QVQLVESGGGLVQAGGSLRLSCAASGYIFSTYDMGWYRQAPGKERELVATISSSGGSTYYADSVKGRFTISRDIAKNTVYLQMNSLKPEDTAVYYCAADLYLYQYRYEYDYWGQGTQVTVSS | high polyreactivity
38 | QVQLVESGGGLVQAGGSLRLSCAASGYIFSTYTMGWYRQAPGKERELVATITVSGGSTYYADSVKGRFTISRDNAKNTVYLQMNSLKPEDTAVYYCAALRYTFAGRFDYWGQGTQVTVSS | high polyreactivity
39 | QVQLVESGGGLVQAGGSLRLSCAASGYIFSYYAMGWYRQAPGKERELVAAITSSGGRTYYADSVKGRFTISRDNAKNTVYLQMNSLKPEDTAVYYCNRDYSSYDTEDYWGQGTQVTVSS | high polyreactivity
40 | QVQLVESGGGLVQAGGSLRLSCAASGYIFTDKVMGWYIQAPGKERELVAAITYSAASTYYADSVKGRFTISRDNAKNTVYLQMNSLKPEDTAVYYCATEYYIGVNYRGDYWGQGTQVTVSS | low polyreactivity
41 | QVQLVESGGGLVQAGGSLRLSCAASGYIFTPYAMGWYRQAPGKERELVAAITGSGSSTYYADSVKGRFTISRDNAKNTVYLQMNSLKPEDTAVYYCAADSYGFYGYYYYELEYWGQGTQVTVSS | low polyreactivity
42 | QVQLVESGGGLVQAGGSLRLSCAASGYIFTRNAMGWYRQAPGKERELVATISSRGGRTYYADSVKGRFTISRDNAKNTVYLQMNSLKPEDTAVYYCAATPWYRTRTYDYWGQGTQVTVSS | high polyreactivity
43 | QVQLVESGGGLVQAGGSLRLSCAASGYIFVHYVMGWYRQAPGKERELVAAISSSGDRTYYADSVKGRFTISRDNAKNTVYLQMNSMKPEDTAVYYCAARYSDTSTNRYYYWGQGTQVTVSS | high polyreactivity

— the nanobody polyreactivity screen of Harvey et al. (2022)
